According to ChEMBL document CHEMBL1151754, “Structural and mechanistic studies of mofegiline inhibition of recombinant human monoamine oxidase B” (J Med Chem, 2008):

Substrate: NCCCCc1ccccc1
Experiment: Activity of human MAOB

B1: Amine oxidase [flavin-containing] B (Homo sapiens) (protein)
chain: MSNKCDVVVVGGGISGMAAAKLLHDSGLNVVVLEARDRVGGRTYTLRNQKVKYVDLGGSYVGPTQNRILRLAKELGLETYKVNEVERLIHHVKGKSYPFRGPFPPVWNPITYLDHNNFWRTMDDMGREIPSDAPWKAPLAEEWDNMTMKELLDKLCWTESAKQLATLFVNLCVTAETHEVSALWFLWYVKQCGGTTRIISTTNGGQERKFVGGSGQVSERIMDLLGDRVKLERPVIYIDQTRENVLVETLNHEMYEAKYVISAIPPTLGMKIHFNPPLPMMRNQMITRVPLGSVIKCIVYYKEPFWRKKDYCGTMIIDGEEAPVAYTLDDTKPEGNYAAIMGFILAHKARKLARLTKEERLKKLCELYAKVLGSLEALEPVHYEEKNWCEEQYSGGCYTTYFPPGILTQYGRVLRQPVDRIYFAGTETATHWSGYMEGAVEAGERAAREILHAMGKIPEDEIWQSEPESVDVPAQPITTTFLERHLPSVPGLLRLIGLTTIFSATALGFLAHKRGLLVRV
kcat: 1.82 s⁻¹
